Target: 3HA-3FLAG-CIAO3-C190S/C395S (human) (UniProt Q9H6Q4)
Assay: affinity purification with mass spectrometry; anti-HA beads on lysates of Flp-In 293 cells expressing the 3HA-3FLAG-tagged bait (NUBP2, wildtype or mutant CIAO3); targeted proteomics assay (parallel reaction monitoring) of CIA components and substrates; CIAO3 purifications normalised to CIAO3; wildtype CIAO3 cells also treated with FAC or DFO for 8 h

Chain of 3HA-3FLAG-CIAO3-C190S/C395S (human) (Q9H6Q4 whole entry C190S/C395S): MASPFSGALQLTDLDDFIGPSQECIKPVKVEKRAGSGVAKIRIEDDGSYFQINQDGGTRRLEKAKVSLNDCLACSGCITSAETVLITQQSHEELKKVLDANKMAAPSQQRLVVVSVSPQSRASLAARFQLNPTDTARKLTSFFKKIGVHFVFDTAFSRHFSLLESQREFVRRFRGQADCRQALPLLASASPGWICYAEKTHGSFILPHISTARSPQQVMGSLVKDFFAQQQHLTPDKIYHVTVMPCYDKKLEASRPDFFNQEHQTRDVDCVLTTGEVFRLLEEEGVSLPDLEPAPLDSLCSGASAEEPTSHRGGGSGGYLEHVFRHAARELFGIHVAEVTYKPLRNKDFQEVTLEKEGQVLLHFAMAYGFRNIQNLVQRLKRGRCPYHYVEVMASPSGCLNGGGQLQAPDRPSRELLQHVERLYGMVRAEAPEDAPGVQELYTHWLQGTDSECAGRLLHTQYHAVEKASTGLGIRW

## The CIA targeting complex
  fold decrease against wildtype CIAO3: 3 to 4 fold

— PMC9243173
